Results: patent US20020086014A1 (Bristol-Myers Squibb, published 2002)

B1: 1E2 (antibody, V domains shown)
VH: QVQLVESGGGVVQPGRSLRLSCAASGFTFSSYGMHWVRQAPGKGLEWVAVIWYDGSNKYYADSVKGRFTISRDNSKNTLYLQMNSLRAEDTAVFYCARAPNYIGAFDVWGQGTMVTVSS
VL: DIQMTQSPSSLSASVGDRVTITCRASQGISSWLAWYQQKPEKAPKSLIYAASSLQSGVPSRFSGSGSGTDFTLTISSLQPEDFATYYCQQYNSYPPTFGQGTKVEIK
notes: Human anti-CTLA-4 monoclonal antibody

How the values were obtained:
[1] = target: T1, purified recombinant human CTLA-4 (human, UniProt P16410 36-161, limits assumed); experiment: competitive ELISA on CTLA-4: unlabelled IgG 0-6666 ng/ml against biotin-labelled BNI 3.1
T1 construct: also called purified CTLA-4; purified recombinant CTLA-4
T1 sequence (looked up): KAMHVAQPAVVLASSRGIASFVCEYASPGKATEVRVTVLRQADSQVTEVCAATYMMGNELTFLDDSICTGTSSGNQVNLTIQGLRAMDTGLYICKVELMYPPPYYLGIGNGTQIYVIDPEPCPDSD

[2] = target: T1, purified recombinant human CTLA-4; experiment: competitive ELISA on CTLA-4: unlabelled IgG 0-6666 ng/ml against biotin-labelled 3A4
[3] = target: human CTLA-4 expressed on cells (human) (UniProt P16410); experiment: flow cytometry (FACScan), cell line expressing recombinant CTLA-4, FITC-anti human IgG
macaque CTLA-4 (macaque) = experiment: as above
murine CTLA-4 (murine) = murine CTLA-4 (murine) (UniProt P09793); experiment: as above
Chain of murine CTLA-4 (murine) (P09793 36-223): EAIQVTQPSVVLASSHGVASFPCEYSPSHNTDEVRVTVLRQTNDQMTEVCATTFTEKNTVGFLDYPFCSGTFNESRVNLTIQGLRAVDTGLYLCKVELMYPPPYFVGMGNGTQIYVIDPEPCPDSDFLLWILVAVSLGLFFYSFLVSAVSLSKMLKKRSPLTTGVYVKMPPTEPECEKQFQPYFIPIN

Molecule | IC50 (read off the curve) [1] | IC50 (read off the curve) [2] | MFI [3] | MFI (macaque CTLA-4 (macaque)) | MFI (murine CTLA-4 (murine))
BNI3 (antibody) | 0.5 µg/mL | 0.09 µg/mL | – | – | –
isotype control (Table 5) (antibody) | – | – | 3 MFI | 4 MFI | 5 MFI
B1 | – | ~0.2 µg/mL | – | – | –
